Where no end group is shown, it is not given here.

The test addresses T1, K3GW (acetylated N-terminus).
T1 peptide: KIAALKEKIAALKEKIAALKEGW
The test is described as follows: ITC.

For the molecule Ac-EIAALEKEIAALEKEIAALEKGY [E3GY], the Kd is 73 nM and the dH is -18.4 kcal/mol.

For the origin of these results see paper PMC7086394 (Bioconjugate Chemistry, 2020).
